{"source": "the Human Domainome abundance scans (Beltran et al. 2025)", "parents": {"B1": {"name": "Peripheral plasma membrane protein CASK, residues 488 to 569; numbered along this chain, O14936 (parent)", "chain": "VRLVQFQKNTDEPMGITLKMNELNHCIVARIMHGGMIHRQGTLHVGDEIREINGISVANQTVEQLQKMLREMRGSITFKIVP"}}, "note": "± gives the uncertainty stated by the source.", "data": [{"variants_of": "B1", "test": "abundance fitness (aPCA) (normalised: wild type 0, dead -1); higher = more abundant; growth selection in yeast, the domain comes from the species named", "conditions": "Homo sapiens", "values": [{"variant": "K79G", "abundance fitness": "-0.044 ± 0.045"}, {"variant": "K79S", "abundance fitness": "0.014 ± 0.033"}, {"variant": "K19Q", "abundance fitness": "-0.016 ± 0.035"}, {"variant": "K19C", "abundance fitness": "-0.089 ± 0.036"}, {"variant": "K19F", "abundance fitness": "-0.041 ± 0.036"}, {"variant": "K19D", "abundance fitness": "-0.016 ± 0.035"}, {"variant": "K19M", "abundance fitness": "-0.071 ± 0.033"}, {"variant": "K19I", "abundance fitness": "-0.102 ± 0.045"}, {"variant": "K19T", "abundance fitness": "-0.009 ± 0.03"}, {"variant": "V4R", "abundance fitness": "-0.265 ± 0.023"}, {"variant": "V4M", "abundance fitness": "-0.138 ± 0.037"}, {"variant": "V4T", "abundance fitness": "-0.239 ± 0.037"}, {"variant": "V4Q", "abundance fitness": "-0.565 ± 0.045"}, {"variant": "I16Y", "abundance fitness": "-0.593 ± 0.11"}, {"variant": "I16D", "abundance fitness": "-0.933 ± 0.21"}, {"variant": "I16F", "abundance fitness": "0.109 ± 0.064"}, {"variant": "I16W", "abundance fitness": "-0.044 ± 0.033"}, {"variant": "I16K", "abundance fitness": "-1.14 ± 0.24"}, {"variant": "M68F", "abundance fitness": "-0.028 ± 0.058"}, {"variant": "M68W", "abundance fitness": "-0.049 ± 0.025"}, {"variant": "M68Y", "abundance fitness": "-0.045 ± 0.051"}, {"variant": "A29P", "abundance fitness": "-0.936 ± 0.15"}, {"variant": "A29T", "abundance fitness": "-0.069 ± 0.054"}, {"variant": "R39P", "abundance fitness": "-0.469 ± 0.04"}, {"variant": "R39T", "abundance fitness": "-0.07 ± 0.03"}, {"variant": "R39C", "abundance fitness": "-0.156 ± 0.055"}, {"variant": "C26A", "abundance fitness": "-0.067 ± 0.025"}, {"variant": "C26P", "abundance fitness": "0.015 ± 0.029"}, {"variant": "C26R", "abundance fitness": "-0.642 ± 0.029"}, {"variant": "V28W", "abundance fitness": "-0.931 ± 0.06"}, {"variant": "V28S", "abundance fitness": "-0.867 ± 0.063"}, {"variant": "V57W", "abundance fitness": "-0.854 ± 0.047"}, {"variant": "V57A", "abundance fitness": "-0.061 ± 0.021"}, {"variant": "V57Y", "abundance fitness": "-0.578 ± 0.072"}, {"variant": "V57H", "abundance fitness": "-0.818 ± 0.096"}, {"variant": "V57D", "abundance fitness": "-0.915 ± 0.076"}, {"variant": "R2E", "abundance fitness": "-0.028 ± 0.034"}, {"variant": "R2H", "abundance fitness": "-0.05 ± 0.061"}, {"variant": "R2T", "abundance fitness": "-0.038 ± 0.038"}, {"variant": "G46E", "abundance fitness": "-0.293 ± 0.042"}, {"variant": "G46W", "abundance fitness": "-0.951 ± 0.092"}, {"variant": "G46A", "abundance fitness": "-0.624 ± 0.045"}, {"variant": "G46T", "abundance fitness": "-0.992 ± 0.2"}, {"variant": "E71H", "abundance fitness": "-0.002 ± 0.048"}, {"variant": "E71D", "abundance fitness": "0.007 ± 0.046"}, {"variant": "E71R", "abundance fitness": "-0.008 ± 0.022"}, {"variant": "E71N", "abundance fitness": "-0.044 ± 0.063"}, {"variant": "E71F", "abundance fitness": "0.013 ± 0.051"}, {"variant": "D47L", "abundance fitness": "-0.878 ± 0.13"}, {"variant": "D47A", "abundance fitness": "-0.708 ± 0.085"}, {"variant": "D47I", "abundance fitness": "-0.694 ± 0.36"}, {"variant": "D47S", "abundance fitness": "-0.711 ± 0.077"}, {"variant": "R70G", "abundance fitness": "0.006 ± 0.022"}, {"variant": "R70H", "abundance fitness": "0.02 ± 0.04"}, {"variant": "R70K", "abundance fitness": "-0.02 ± 0.031"}, {"variant": "R70D", "abundance fitness": "0.038 ± 0.035"}, {"variant": "P13E", "abundance fitness": "-0.119 ± 0.091"}, {"variant": "P13S", "abundance fitness": "-0.036 ± 0.045"}, {"variant": "N9M", "abundance fitness": "-0.012 ± 0.03"}, {"variant": "K67H", "abundance fitness": "0.029 ± 0.057"}, {"variant": "K67G", "abundance fitness": "-0.014 ± 0.024"}, {"variant": "K67A", "abundance fitness": "-0.022 ± 0.028"}, {"variant": "T61N", "abundance fitness": "0.011 ± 0.038"}, {"variant": "T61G", "abundance fitness": "-0.015 ± 0.023"}, {"variant": "T61A", "abundance fitness": "-0.084 ± 0.024"}, {"variant": "T61K", "abundance fitness": "-0.054 ± 0.035"}, {"variant": "T61M", "abundance fitness": "-0.294 ± 0.039"}, {"variant": "T61F", "abundance fitness": "-0.457 ± 0.058"}, {"variant": "I80Y", "abundance fitness": "-0.188 ± 0.06"}, {"variant": "I80G", "abundance fitness": "-0.408 ± 0.071"}, {"variant": "I80C", "abundance fitness": "-0.074 ± 0.052"}, {"variant": "I80F", "abundance fitness": "-0.098 ± 0.043"}, {"variant": "I80W", "abundance fitness": "-0.383 ± 0.081"}, {"variant": "I80L", "abundance fitness": "-0.113 ± 0.028"}, {"variant": "T42H", "abundance fitness": "-0.065 ± 0.045"}, {"variant": "T42W", "abundance fitness": "-0.246 ± 0.027"}, {"variant": "T42N", "abundance fitness": "-0.039 ± 0.046"}, {"variant": "M20L", "abundance fitness": "-0.016 ± 0.032"}, {"variant": "M20Q", "abundance fitness": "-0.059 ± 0.038"}, {"variant": "M20H", "abundance fitness": "-0.038 ± 0.062"}, {"variant": "M20Y", "abundance fitness": "-0.01 ± 0.066"}, {"variant": "G74S", "abundance fitness": "-0.381 ± 0.033"}, {"variant": "G74D", "abundance fitness": "-0.131 ± 0.043"}]}]}
